Measured values published in the supplement of paper PMC9876800.

System: peptide library, one residue held at a place counted from the S/T acceptor
Experiment: relative phosphorylation of the sub-library (ratio to the mean residue at this position); higher = residue favoured
Outline: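 Purified recombinant kinases, either human or orthologue constructs, were incubated in 384-well plates with biotinylated degenerate peptide sub-libraries. Each sub-library fixed one residue at one position around a central Ser/Thr. Peptides at 50 μM and 50 μM ATP spiked with γ-32P-ATP were used for 90 min under kinase-specific conditions, and spots on streptavidin membranes were phosphorimaged and quantified by densitometry. Relative sub-library phosphorylation is expressed as a ratio to the mean residue at that position.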

WNK4, construct: aa1-444, human, sequence (Q96J92 1-444, looked up): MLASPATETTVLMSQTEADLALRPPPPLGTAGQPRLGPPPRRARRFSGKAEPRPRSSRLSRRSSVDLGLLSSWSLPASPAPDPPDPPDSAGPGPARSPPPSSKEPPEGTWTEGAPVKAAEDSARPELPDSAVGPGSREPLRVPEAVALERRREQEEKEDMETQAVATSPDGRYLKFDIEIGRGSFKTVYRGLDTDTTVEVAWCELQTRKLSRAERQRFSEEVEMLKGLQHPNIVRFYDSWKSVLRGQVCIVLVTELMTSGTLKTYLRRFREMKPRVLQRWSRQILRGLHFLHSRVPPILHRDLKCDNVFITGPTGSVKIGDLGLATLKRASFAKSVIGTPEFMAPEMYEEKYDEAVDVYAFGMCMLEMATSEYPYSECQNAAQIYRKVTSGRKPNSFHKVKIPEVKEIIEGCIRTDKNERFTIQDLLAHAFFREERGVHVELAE
MAPKAPK5, construct: Full length, human, sequence (Q8IW41 whole entry, looked up): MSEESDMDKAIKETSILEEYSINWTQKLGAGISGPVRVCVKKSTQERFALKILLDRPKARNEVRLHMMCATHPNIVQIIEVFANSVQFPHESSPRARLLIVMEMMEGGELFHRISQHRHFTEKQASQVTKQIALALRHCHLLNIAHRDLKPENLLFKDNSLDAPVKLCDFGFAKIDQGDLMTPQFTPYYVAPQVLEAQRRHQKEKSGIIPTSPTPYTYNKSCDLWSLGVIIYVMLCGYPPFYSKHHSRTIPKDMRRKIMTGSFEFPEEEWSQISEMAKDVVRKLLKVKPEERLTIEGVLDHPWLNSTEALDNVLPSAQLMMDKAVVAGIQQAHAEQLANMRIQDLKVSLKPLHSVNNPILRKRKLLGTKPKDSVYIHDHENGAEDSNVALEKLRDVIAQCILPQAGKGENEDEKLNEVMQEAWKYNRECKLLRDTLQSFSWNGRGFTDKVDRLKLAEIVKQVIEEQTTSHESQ

MAPKAPK5, construct: Full length, human (from UniProt Q8IW41)
relative phosphorylation
Settings | at +1 | at +2 | at +3 | at +4 | at -1 | at -2 | at -3 | at -4 | at -5
A fixed | 0.697 | 1.12 | 1.09 | 0.728 | 0.899 | 1.63 | 0.654 | 0.868 | 0.78
D fixed | 0.317 | 1.3 | 0.82 | 1.17 | 0.706 | 0.282 | 0.157 | 0.486 | 0.433
E fixed | 0.474 | 1.29 | 0.757 | 1.01 | 0.557 | 0.442 | 0.171 | 0.864 | 0.313
F fixed | 1.17 | 0.746 | 1.48 | 0.96 | 0.965 | 0.679 | 0.639 | 1.11 | 1.79
G fixed | 0.396 | 0.947 | 0.903 | 1.05 | 0.427 | 1.07 | 0.5 | 0.658 | 0.527
H fixed | 1.13 | 1.11 | 1.01 | 1.17 | 1.22 | 0.742 | 1.14 | 1.03 | 0.763
I fixed | 1.38 | 0.921 | 0.694 | 0.883 | 1.18 | 0.522 | 0.228 | 0.834 | 1.24
K fixed | 0.641 | 0.729 | 0.646 | 0.917 | 0.966 | 0.769 | 0.754 | 1.23 | 0.777
L fixed | 1.02 | 0.704 | 0.819 | 0.794 | 1.33 | 1.16 | 0.521 | 1.19 | 1.59
M fixed | 1.15 | 1 | 1.05 | 0.912 | 1.8 | 1.77 | 0.816 | 1.27 | 1.27
N fixed | 0.552 | 1.08 | 0.687 | 0.986 | 1.09 | 0.903 | 0.341 | 0.642 | 0.633
P fixed | 0.338 | 0.956 | 1.46 | 1.25 | 0.529 | 0.292 | 0.322 | 0.512 | 0.748
Q fixed | 1.13 | 1.23 | 0.672 | 0.898 | 0.935 | 2.85 | 0.696 | 0.93 | 0.62
R fixed | 0.931 | 0.972 | 0.602 | 0.968 | 1.38 | 1.55 | 7.97 | 1.32 | 1.28
V fixed | 1.84 | 1.24 | 1.1 | 0.768 | 1.04 | 0.608 | 0.267 | 0.813 | 0.894
W fixed | 2.06 | 0.716 | 1.48 | 1.41 | 0.822 | 0.861 | 0.935 | 1.82 | 1.89
Y fixed | 1.78 | 0.942 | 1.73 | 1.14 | 1.17 | 0.862 | 0.885 | 1.43 | 1.47
pThr fixed | 0.688 | 0.697 | 0.784 | 1.49 | 0.462 | 0.387 | 0.267 | 0.599 | 0.61
pTyr fixed | 2.04 | 1.96 | 1.2 | 1.41 | 1.28 | 1.36 | 0.297 | 1.26 | 0.914

WNK4, construct: aa1-444, human (from UniProt Q96J92)
relative phosphorylation
Settings | at +1 | at +2 | at +3 | at +4 | at -1 | at -2 | at -3 | at -4 | at -5
A fixed | 0.658 | 0.979 | 0.693 | 0.885 | 1.14 | 1.49 | 0.929 | 0.894 | 0.916
D fixed | 0.249 | 0.57 | 0.62 | 0.54 | 0.287 | 0.305 | 0.389 | 0.579 | 0.489
E fixed | 0.247 | 0.452 | 0.518 | 0.638 | 0.467 | 0.305 | 0.524 | 0.615 | 0.565
F fixed | 1.13 | 0.977 | 2.1 | 1.3 | 0.788 | 0.821 | 0.748 | 0.864 | 1.21
G fixed | 0.88 | 1.12 | 0.755 | 0.865 | 1.18 | 2.7 | 1.06 | 0.973 | 0.89
H fixed | 0.813 | 0.973 | 1.35 | 1.12 | 1.05 | 1.54 | 1.16 | 1.21 | 1.21
I fixed | 1.2 | 1.79 | 0.919 | 1.24 | 0.796 | 0.754 | 0.947 | 0.9 | 1.07
K fixed | 0.918 | 0.872 | 1.06 | 1.29 | 1.66 | 1.03 | 1.64 | 1.6 | 1.27
L fixed | 1.42 | 1.24 | 1.02 | 0.92 | 0.833 | 0.637 | 0.88 | 0.79 | 1.14
M fixed | 1.96 | 1.31 | 1.04 | 1.1 | 1.58 | 0.708 | 1.02 | 0.924 | 0.986
N fixed | 0.945 | 0.664 | 0.691 | 0.811 | 0.636 | 0.614 | 0.746 | 0.867 | 0.807
P fixed | 0.242 | 0.318 | 0.514 | 0.713 | 0.452 | 1.31 | 0.93 | 0.674 | 0.628
Q fixed | 1.17 | 0.522 | 0.565 | 0.673 | 0.952 | 0.573 | 0.741 | 0.88 | 0.639
R fixed | 1.87 | 2.16 | 1.22 | 1.42 | 2.68 | 1.74 | 2.66 | 2.19 | 1.7
V fixed | 0.973 | 1.16 | 0.848 | 0.969 | 0.812 | 0.972 | 0.959 | 0.877 | 0.891
W fixed | 0.975 | 0.85 | 1.63 | 1.32 | 0.637 | 0.662 | 0.709 | 1.04 | 1.25
Y fixed | 1.35 | 1.03 | 1.46 | 1.19 | 1.05 | 0.828 | 0.963 | 1.13 | 1.33
pThr fixed | 0.386 | 0.407 | 0.388 | 0.617 | 0.444 | 0.683 | 0.809 | 0.732 | 0.731
pTyr fixed | 0.565 | 0.537 | 0.612 | 0.674 | 0.727 | 0.471 | 0.708 | 0.527 | 0.764
